Test results published in the supplement of paper PMC12764529.
± gives the half width of the 95% confidence interval.

Key:
[1] = folding stability dG unfold from chymotrypsin proteolysis; higher = more stable
Experimental: (§1)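 Folding stability of de novo designed mini-proteins (<80 aa, no Cys; designed by TrROS, TrMRF, ProteinMPNN and the joint model) was measured by cDNA display proteolysis with trypsin and chymotrypsin. Each protease was used at 11 concentrations in a threefold dilution series plus a no-protease condition. K50 was inferred by Bayesian fitting of sequencing counts, and dG unfold was derived against a sequence-predicted unfolded-state K50 (Tsuboyama et al. method). Sequences shown include variable-length N-terminal GS-type padding (SAGGSAGG...) inside a display construct carrying a PA tag. Rows were kept only if the AF2 dimer inter-PAE was >15, to exclude likely homo-oligomers.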

[2] = folding stability dG unfold (combined trypsin and chymotrypsin); higher = more stable
Experimental: as §1

KDFGITFKSPETIEEIAKKLGPNVVPTDIKKDPKGYVYAKIPTPDGKETDIVIPADKYSYEEAVKFAKEAES [r1_279_TrMRF]
folding stability dG unfold [1]: 0.228 ± 0.16 kcal/mol | folding stability dG unfold [2]: -0.232 ± 0.13 kcal/mol

MKITVTITSLGDKYTMTAEIELPDGTVETITKEFDSPEEAKKYIEKLVKELPPGLVEIEEIKFNPPDGTADS [r1_169_JUSTAS]
folding stability dG unfold [1]: 4.94 ± 0.6 kcal/mol | folding stability dG unfold [2]: > 6 kcal/mol

MTEKEIKEKAEEIAKKIAEEKGTEIKSAKIGGYVNVPVKVKEKLDENGKPVFEFEGKKVKVKVEVELKKKKS [r1_91_TrMRF]
folding stability dG unfold [1]: 0.567 ± 0.33 kcal/mol | folding stability dG unfold [2]: < -1 kcal/mol

SADPADVDVPLPVVGTAPALTSAPPGARLELVRLPDLGALARVDDGSVVALTVVVNDDGEVLAVAVEPAPSA [r9_1195_TrMRF]
folding stability dG unfold [1]: 0.894 ± 0.028 kcal/mol | folding stability dG unfold [2]: 0.252 ± 0.066 kcal/mol

SADPALEAEARARARAEARARGVERLEFELTREVTRESLVRFPGGELREVVERREVRYRVEVEVPPEAASAG [r14_232_JUSTAS]
folding stability dG unfold [1]: 0.963 ± 0.077 kcal/mol | folding stability dG unfold [2]: 0.366 ± 0.099 kcal/mol

SADWLSVPFELLEEKPPPADKPLPEGSSAEVVVEDPLRPGEPIKLEVFYFPEKGILILRYEGKEIEIKVGSA [r9_243_JUSTAS]
folding stability dG unfold [1]: 0.673 ± 0.49 kcal/mol

SAEKVTLTITVKMTEEELKEIAEKVGMKVEITVEKEEDGLYRVTLTFETPEEAEKAREALEKAGYKVEPSAG [r14_745_TrROS_Hall]
folding stability dG unfold [1]: 4.57 ± 0.14 kcal/mol | folding stability dG unfold [2]: 4.6 ± 0.16 kcal/mol

SAGDKYRIKMTNPNGKKIEFEIPPNGYIKVRIRNPNNEHEMTIPIPPGETIEEALDNFPPYKISEIEPVSAG [r5_259_TrROS]
folding stability dG unfold [1]: 0.795 ± 0.1 kcal/mol | folding stability dG unfold [2]: 0.328 ± 0.082 kcal/mol

SAGEPNKIKVKVKIRMWMPRKDPDGQQAEPHPMPMTFEYKAPWEDAKNIIDSMPPGMQIDKIDKIEPLSAGG [r19_114_TrROS]
folding stability dG unfold [1]: 0.226 ± 0.3 kcal/mol | folding stability dG unfold [2]: 0.109 ± 0.29 kcal/mol

SAGESTLELTETSFPDGTTARVTTTRYPGLVRREATVTLPDGTVERLSAEVTLDEDEEVVTTSRSPLPSAGG [r19_385_JUSTAS]
folding stability dG unfold [1]: -0.247 ± 0.13 kcal/mol | folding stability dG unfold [2]: -0.666 ± 0.45 kcal/mol

SAGGAPAAGDVVETETLRLERDEPDTITLTRLRTVEVVLPDGRVLTRTESETVRLEATDEEAVELAESSAGG [r13_544_TrMRF]
folding stability dG unfold [1]: 0.883 ± 0.22 kcal/mol | folding stability dG unfold [2]: 0.397 ± 0.14 kcal/mol

SAGGDPALLLPVERKVTIEYTDEDGKKFTVGDVTVLPSPEILVKIPGTGETIRVPPSVVKKVEEVPESAGGS [r8_410_JUSTAS]
folding stability dG unfold [1]: -0.455 ± 0.18 kcal/mol | folding stability dG unfold [2]: < -1 kcal/mol

SAGGDYDYEKDPNKYRVKERDKNGKILGEKEVEVKPPPIVIDGLPEEDLQEFQDKFPNIPITINPGAISAGG [r13_235_TrROS]
folding stability dG unfold [1]: -0.271 ± 0.5 kcal/mol | folding stability dG unfold [2]: < -1 kcal/mol

SAGGEDFTIRTRSPNGEEQKFPFKVDNVEIEPENNHYSIHIKDGKKLTIPPGGIDDIEPDDIKDWIKDSAGG [r13_925_TrROS]
folding stability dG unfold [1]: -0.0875 ± 0.29 kcal/mol | folding stability dG unfold [2]: -0.373 ± 0.21 kcal/mol

SAGGEELVIEFDSLEDALSAIYPRPDLDKVTLVVPGEGVPVVIPVTVTPPDLGVLGRSAEDRPVPLLGSAGG [r13_183_TrMRF]
folding stability dG unfold [1]: -0.825 ± 0.2 kcal/mol | folding stability dG unfold [2]: < -1 kcal/mol

SAGGEIKIVVSAEELLRKEGKLSEEQRKKLEEALEEAKKLAEEGKEVKVEVEVVPPKPELKPEDKEKKSAGG [r13_731_TrROS_Hall]
folding stability dG unfold [1]: 0.214 ± 0.086 kcal/mol | folding stability dG unfold [2]: < -1 kcal/mol

SAGGEITIVIEGMSEEEREKALEEVRNKIKELKEKHPEKKITIVVDTPEAKKVAEELKKEGYEVEILSAGGS [r16_450_TrROS_Hall]
folding stability dG unfold [1]: 2.06 ± 0.15 kcal/mol | folding stability dG unfold [2]: 2.86 ± 0.43 kcal/mol

SAGGGENAPKPIVEPKLVSTFLIDVEPDTYTPEEIAELFKEATGYEIEEVEVEELPDDNTVLVTVVAGSAGG [r13_457_TrMRF]
folding stability dG unfold [1]: 0.472 ± 0.24 kcal/mol | folding stability dG unfold [2]: 0.0888 ± 0.22 kcal/mol

SAGGGLARELFEAENLPVVVEEEERDGKPVLRLVVDAGDKPLVFESDGEDVERAVREAARELGLPGLSAGGS [r8_226_TrMRF]
folding stability dG unfold [1]: 0.674 ± 0.085 kcal/mol | folding stability dG unfold [2]: 0.337 ± 0.15 kcal/mol

SAGGGMPLEELKDIPENLPPGARVRLRFPETGEEGVYVLREDGGYTVEVPGGVVEAPEDTEVTEIVPSAGGS [r8_162_TrMRF]
folding stability dG unfold [1]: 0.414 ± 0.13 kcal/mol | folding stability dG unfold [2]: -0.192 ± 0.17 kcal/mol

SAGGGMPVPEVEVELLEEREVPGGRVTLGRAKTPDAWETLTTEYDPATGRRRTWRETPEGVTPYAEEGSAGG [r13_445_JUSTAS]
folding stability dG unfold [1]: -0.567 ± 0.65 kcal/mol | folding stability dG unfold [2]: < -1 kcal/mol

SAGGGNPPVLKIELTKTYHPPDGTKVELYRVEHPVEPREIYIVKTYPDDGAEEVKIVKEEELKEALKSAGGS [r8_421_JUSTAS]
folding stability dG unfold [1]: 0.771 ± 0.36 kcal/mol | folding stability dG unfold [2]: < -1 kcal/mol

SAGGGPGSVSPQPFEEDYTLPDPGEKIRVKVTAYTLPDGSVVERAVSPEPEREFVFTRDGETVTVTPESAGG [r13_117_JUSTAS]
folding stability dG unfold [1]: 0.612 ± 0.088 kcal/mol | folding stability dG unfold [2]: 0.116 ± 0.12 kcal/mol

SAGGGRMIKLTFKSGETKTIPLSSDYPDAKVEVSEKDDKLYITVTYPNGEKITYEFPLSEVESIEILSAGGS [r16_658_JUSTAS]
folding stability dG unfold [1]: 4.526 ± 0.042 kcal/mol | folding stability dG unfold [2]: 4.7 ± 0.1 kcal/mol

SAGGGSSSSSIATETFTKEVEVPTEDGKLKKVLVTTTVSRPISLEPKTGKKYSLSTTVTTTTVSPEELSAGG [r13_312_JUSTAS]
folding stability dG unfold [1]: -0.461 ± 0.58 kcal/mol | folding stability dG unfold [2]: < -1 kcal/mol

SAGGGSSVTYDPATGEVTVTLHPVDPHPGRLRSRTLPLPAPGSPEEVRERIRALVEAEPAWSTDLTAASAGG [r13_284_JUSTAS]
folding stability dG unfold [1]: 0.892 ± 0.12 kcal/mol | folding stability dG unfold [2]: 0.423 ± 0.18 kcal/mol

SAGGGSTVVTTTEPAAAVRARVEAEARARGVALDVDVTVEPTPEGPVVTFDVRVDPGAPAVPAANRVSAGGS [r16_262_JUSTAS]
folding stability dG unfold [1]: 0.0214 ± 0.23 kcal/mol | folding stability dG unfold [2]: -0.629 ± 0.25 kcal/mol

SAGGGTVVDPGPRVVTITVRPPDGKPRTITLPLPDATPEEIRARLEAVAAALPEAGATVDVLDIRPLPSAGG [r13_29_JUSTAS]
folding stability dG unfold [1]: 0.941 ± 0.024 kcal/mol | folding stability dG unfold [2]: 0.397 ± 0.064 kcal/mol

SAGGIKELQEALREGNLPEIIKELKKRGYENVKIQPNPDEGTIEIEIERKDPEDGKPEEEELTIPLEPSAGG [r13_359_TrROS]
folding stability dG unfold [1]: 0.184 ± 0.084 kcal/mol | folding stability dG unfold [2]: -0.271 ± 0.21 kcal/mol

SAGGIRLEIPPNWTPEEAKEQAEELANFFAKKGPMEVEDIEYKRDEKDGNPMIVGEIRDPKNGKEWTISAGG [r13_669_TrROS]
folding stability dG unfold [1]: -0.127 ± 0.3 kcal/mol | folding stability dG unfold [2]: -0.754 ± 0.68 kcal/mol

SAGGSAGGSMYYLIKTKPPDGKEEYIIDPLPPGGSIEDIIPEDLEIEEIKPFKSKEEAEKYLKSAGGSAGGS [r20_18_JUSTAS]
folding stability dG unfold [1]: 0.516 ± 0.46 kcal/mol

SAGMTVEEAAKEAIEKIPPTTKEVEFEIDLGEKPLIVKIENIPDPETNKPIPKVIVEDPDEPKKVEFEISAG [r5_236_TrMRF]
folding stability dG unfold [1]: 0.104 ± 0.13 kcal/mol

SAPDMQITDVEISEVEKNPDGKRTIEIWMRMDNYTYKATFPADKDGKIKKLSMERDPENNWMRHKIEIDSAG [r14_189_TrROS]
folding stability dG unfold [1]: 0.283 ± 0.34 kcal/mol

SGINTEYTVTSVGPAGTPVTTELKTKIGNKEYSLTRTYQDPSGSVRLVNWKITSSPSGSSTISETVSPLPSA [r9_255_JUSTAS]
folding stability dG unfold [2]: < -1 kcal/mol

SGKVVGEKTYPVSDGSEGPAKATRDPDSLTFTITNKKGEVIKTIKVPKNAGVEKVFDIKVSPDEFKGLNLSA [r9_215_JUSTAS]
folding stability dG unfold [2]: < -1 kcal/mol

SGSMVVVPESDLEAAIATARALVAAGEDTLLFFSPEAREAVQRAVPEVRVEPVPGVPPTPPRPESVARLRSA [r9_639_JUSTAS]
folding stability dG unfold [2]: < -1 kcal/mol

SMELLEAVKKGVKTVTVLLKPGDEEKVKLAAELPVNIVLKASPEISEEVFKKIPGINLTEVKPLSPEELPSA [r9_671_JUSTAS]
folding stability dG unfold [2]: < -1 kcal/mol

SMITPEDLEALKAAGVELVSRDPNNRVTLFDPATNTPIELEVEEVPPPPPVTFPGNGPSVEERRAWLERRSA [r9_649_JUSTAS]
folding stability dG unfold [2]: < -1 kcal/mol

SMTIEELLKKHPNLSAEELAKLIADELKKKLPPGAKITVTVEEKDGKLVLKVEVEVNGKKITIELEIELKSA [r9_805_TrROS_Hall]
folding stability dG unfold [2]: > 6 kcal/mol

SMTITLEKTLPDGSKVTITIPITKVPGKPLYKATVTVTTTKPGGTPSSKTYTFDFTSEEEAVEKAKEILASA [r9_337_JUSTAS]
folding stability dG unfold [2]: > 6 kcal/mol

SPPYRATVEMEAPNGEPIGEEEFPIKPGKNLMFMMPAPARVRIEIEDPDEGEPREQEYDPRSGMLHFPLKSA [r9_272_TrROS]
folding stability dG unfold [2]: < -1 kcal/mol

SRFRISVQHDGKPIDRAEVQDAIHDLMQESGRPITFEELADELAERPNYSVSIERWNPPGKPKGTRTIRVSA [r9_1045_TrROS]
folding stability dG unfold [2]: < -1 kcal/mol

SSITFPVPKEEKEPDPDGDPHPRREPKPVPIPPDAIRDQIYNMIRTELRDAGLPDMTEEDIDDPEFIDRLSA [r9_263_TrROS]
folding stability dG unfold [2]: < -1 kcal/mol

SSPPPSITVKSISREPATGTVTIPTSHPSGKHISVEWRSPDGTVTVVPPDKPTATLPAAPDWTLTKISVGSA [r9_113_JUSTAS]
folding stability dG unfold [2]: < -1 kcal/mol

SSPVVEAIEAEAAARGLPVEVSVSPDENGNPVVPVRVLTPEVLAAGEPRLAERVRPVTTDGRTVTVRVVASA [r9_489_JUSTAS]
folding stability dG unfold [2]: < -1 kcal/mol
